Here are results for one molecule from patent publication US10350158B2, “2′ fluoro-modified RNAs as immunostimulators” (DUKE UNIVERSITY, priority 2013, dated 2019).

A short description of series [1]: Serum stability in 10% fetal bovine serum, polyacrylamide gel. It counts as in vitro ADME. As to conditions: 37° C., 0 to 24 h. The procedure: FIG. 6A-FIG. 6D are a set of graphs showing that 2′F modification increases nuclease resistance, cytotoxicity and inflammatory cytokine induction of immunostimulatory 5′ppp ssRNAs. FIG. 6A is a graph showing ability of various modified ssRNAs to inhibit the growth of cells over concentration ranges. WM266-4 cells were treated with transfection reagent alone (mock) or the complex of transfection reagent and 5′ppp 10F containing 2′F pyrimidine, 2′OMe pyrimidine or unmodified pyrimidine (2′OH) at various concentrations. The viral dsRNA analog PolyI:C was used as an experimental control. Growth inhibition was assessed at 72 h post treatments using the MTT assay. FIG. 6B is a set of graphs showing cytokine induction after treatment with the indicated ssRNAs. WM266-4 cells were either treated with transfection reagent alone (mock) or the complex of transfection reagent and 5′ppp 2′OH 10F, 5′ppp 2′F 10F, 5′ppp 2′OMe 10F or poly I:C (0.5 μg/ml each). The secretion of IFNβ and IL-8 by the melanoma cells was analyzed at 24 h after treatment by ELISA. The data represent the mean of three experiments. Error bars represent the S.D.; *P<0.05 (5′ppp 2′F 10F vs 5′ppp 2′OH 10F); P<0.001 (5′ppp 2′OMe 10F vs 5′ppp 2′OH 10F). […] RNAs were analyzed on 12% polyacrylamide gels. […] At 4 h, 8, 12 and 24 h after transfection, total RNAs were isolated and cellular 10F RNA levels were analyzed by RT-PCR. […]

Series [2] relates to WM266-4 cells. In words: Apoptosis / cell death by Annexin V-PE and 7-AAD flow cytometry. Conditions: aptamer treated with bacterial alkaline phosphatase (BAP), 0.125 μg/ml. It is filed as cell-based, human. The procedure: For the intracellular delivery of immune stimulatory RNAs, RNAs were transfected with the DharmaFECT® Duo liposomal transfection reagent (Thermo Scientific, Waltham, Mass.) at a transfection reagent (μl):RNA (μg) ratio of 3.75:1, according to the manufacturer's instructions. Unless otherwise stated, for the induction of innate immune responses and apoptosis, immune stimulatory RNAs (500 ng/ml) were transfected into 50 to 70% confluent cells. Cells were incubated with an RNA-transfection agent complex for 5 h, followed by replenishment with fresh culture medium. […]
(§1) Growth inhibition relative to untreated cells was quantified at 72 h after RNA transfection using an MTT Cell Proliferation Assay Kit (Cayman Chemicals, Ann Arbor, Mich.), according to the manufacturer's instructions. The percent growth inhibition was calculated by using the following equation: % growth inhibition=([O.D.]untreated−[O.D.]treated)/[O.D.]untreated×100. The induction of cell death was measured 48 h after RNA transfection by flow cytometry after staining with Annexin V-PE and 7-Aminoactinomycin D (7-AAD) using the PE Annexin V Apoptosis Detection Kit I (BD Biosciences, San Jose, Calif.) and analyzed using the CellQuest software (BD Biosciences).
In general terms: Flow cytometry measures light scatter and fluorescence of single cells or particles in a stream.

The subject of series [3] is IL-8. The series can be described thus: IL-8 ELISA of transfected melanoma cell supernatants. It is filed as cell-based, human. Conditions: 0.5 μg/ml, 24 h. The procedure:
For the intracellular delivery of immune stimulatory RNAs, RNAs were transfected with the DharmaFECT® Duo liposomal transfection reagent (Thermo Scientific, Waltham, Mass.) at a transfection reagent (μl):RNA (μg) ratio of 3.75:1, according to the manufacturer's instructions. Unless otherwise stated, for the induction of innate immune responses and apoptosis, immune stimulatory RNAs (500 ng/ml) were transfected into 50 to 70% confluent cells. Cells were incubated with an RNA-transfection agent complex for 5 h, followed by replenishment with fresh culture medium. To electroporate cells, 1×10^5 cells suspended in 200 μl Opti-MEM I (Invitrogen) were mixed with 1 μg of immune stimulatory RNAs or 5 μg of 2'Fluoro pyrimidine ribonucleoside triphosphate in 2-mm cuvettes and were electroporated at 300 V for 500 μs using an Electro Square Porator ECM 830 (BTX, San Diego, Calif.). For the knockdown of RNA-sensing PRRs, cells were transfected with PRR-specific siRNAs (25 nM) twice at 2-day intervals using DharmaFECT®-1 (Thermo Scientific). At 5 h after the second siRNA transfection, cells were harvested, replated into a 96-well plate and incubated overnight. […] The production of human IL-8 was analyzed with a human IL-8 ELISA kit (eBioscience). IFN-β production was determined with a human IFN-β ELISA kit (PBL Biomedical Laboratories, Piscataway, N.J.) by following the manufacturer's instructions.
Background: An ELISA detects its analyte on a solid surface through an enzyme-linked reagent.

Series [4] deals with WM266-4 cells. It is filed as cell-based. The protocol: For the intracellular delivery of immune stimulatory RNAs, RNAs were transfected with the DharmaFECT® Duo liposomal transfection reagent (Thermo Scientific, Waltham, Mass.) at a transfection reagent (μl):RNA (μg) ratio of 3.75:1, according to the manufacturer's instructions. Unless otherwise stated, for the induction of innate immune responses and apoptosis, immune stimulatory RNAs (500 ng/ml) were transfected into 50 to 70% confluent cells. Cells were incubated with an RNA-transfection agent complex for 5 h, followed by replenishment with fresh culture medium. To electroporate cells, 1×10^5 cells suspended in 200 μl Opti-MEM I (Invitrogen) were mixed with 1 μg of immune stimulatory RNAs or 5 μg of 2′Fluoro pyrimidine ribonucleoside triphosphate in 2-mm cuvettes and were electroporated at 300 V for 500 μs using an Electro Square Porator ECM 830 (BTX, San Diego, Calif.). For the knockdown of RNA-sensing PRRs, cells were transfected with PRR-specific siRNAs (25 nM) twice at 2-day intervals using DharmaFECT®-1 (Thermo Scientific). At 5 h after the second siRNA transfection, cells were harvested, replated into a 96-well plate and incubated overnight. Cells were then treated with immune stimulatory RNA transfections. Staurosporine (2 μM) (Sigma, St Louis, Mo.) and recombinant human IFNβ (20 ng/ml) (PeproTech, Rocky Hill, N.J.) were used as positive controls of anti-melanoma cytotoxicity. B18R (100 ng/ml) (eBioscience, San Diego, Calif.) was added directly to the growth media of cells to neutralize IFNβ.
as §1

Strand notation (5' to 3'): a small letter for the sugar, then the base; units joined by * are phosphorothioate-linked, units joined directly phosphodiester-linked; [ ] holds rarer units or linkages, { } end groups; capitals alone tell only the bases. {ppp} = triphosphate; r = 2'-OH (RNA); f = 2'-fluoro

B1: 10F: 5′ppp 2′F pyrimidine ssRNA aptamer, 71 nt, human melanocytic cell-targeting, SEQ ID NO: 4 (nucleic acid)
chain: {ppp}-rGrGrGrArGrGrAfCrGrAfUrGfCrGrGfUrAfCfCfUrGrAfCrArGfCrAfUfCfUfUrGrAfUrArAfUrGrGfUfCfCfUrAfCrGrGrArGfCfCrGfUfUfCfCrArGrAfCrGrAfCfUfCrGfCfCfCrGrA
Regarding B1, the serum stability result in series [1] is on record as “resistant to serum degradation”. Further, the “apoptosis after dephosphorylation of the aptamer” value in series [2] is recorded as “partially prevented”. For the same molecule, in series [3], the “IL-8 production, fold compared to unmodified 5′ppp RNAs” value is “over 2 fold” and the “IL-8 production, in words” value was “strong induction”. In addition, the “cytotoxicity, fold compared to unmodified 5′ppp RNAs” value in series [4] (5′ppp 10F variants, 72 h, MTT) is recorded as “over 2 fold”. The “cell death / apoptosis of melanoma cells on co-treatment with B18R” value in series [4] (B18R 100 ng/ml, type I IFN decoy receptor) is given as “only partially rescued”. Moreover, the “growth inhibition / cytotoxicity (anti-melanoma effect), in words” value in series [4] (liposomal transfection, 72 h, MTT) is given as “comparable to levels observed for the gold standard PRR-activating anti-cancer agent, polyI:C”.
